Laboratory results: US20240400708A1

Each molecule was assayed against feline FcRn complex (FcRn-α subunit and β-microglobulin), biotin labeled (feline) (assay: SPR, pH 6).

Molecule | Kd [µM]
feline IgG1a S252L (antibody, part only; not given: Variable domains, not shown: another chain or arm of the molecule) constant: ASTTAPSVFPLAPSCGTTSGATVALACLVLGYFPEPVTVSWNSGALTSGVHTFPAVLQASGLYSLSSMVTVPSSRWLSDTFTCNVAHPPSNTKVDKTVRKTDHPPGPKPCDCPKCPPPEMLGGPSIFIFPPKPKDTLLISRTPEVTCLVVDLGPDDSDVQITWFVDNTQVYTAKTSPREEQFNSTYRVVSVLPILHQDWLKGKEFKCKVNSKSLPSPIERTISKAKGQPHEPQVYVLPPAQEELSRNKVSVTCLIKSFHPPDIAVEWEITGQPEPENNYRTTPPQLDSDGTYFVYSKLSVDRSHWQRGNTYTCSVSHEALHSHHTQKSLTQSPGK | 0.0707
feline IgG1a S252G (antibody, part only; not given: Variable domains, not shown: another chain or arm of the molecule) constant: ASTTAPSVFPLAPSCGTTSGATVALACLVLGYFPEPVTVSWNSGALTSGVHTFPAVLQASGLYSLSSMVTVPSSRWLSDTFTCNVAHPPSNTKVDKTVRKTDHPPGPKPCDCPKCPPPEMLGGPSIFIFPPKPKDTLGISRTPEVTCLVVDLGPDDSDVQITWFVDNTQVYTAKTSPREEQFNSTYRVVSVLPILHQDWLKGKEFKCKVNSKSLPSPIERTISKAKGQPHEPQVYVLPPAQEELSRNKVSVTCLIKSFHPPDIAVEWEITGQPEPENNYRTTPPQLDSDGTYFVYSKLSVDRSHWQRGNTYTCSVSHEALHSHHTQKSLTQSPGK | 0.0498
feline IgG1a S252C (antibody, part only; not given: Variable domains, not shown: another chain or arm of the molecule; small tags and cut ends) constant: ASTTAPSVFPLAPSCGTTSGATVALACLVLGYFPEPVTVSWNSGALTSGVHTFPAVLQASGLYSLSSMVTVPSSRWLSDTFTCNVAHPPSNTKVDKTVRKTDHPPGPKPCDCPKCPPPEMLGGPSIFIFPPKPKDTLCISRTPEVTCLVVDLGPDDSDVQITWFVDNTQVYTAKTSPREEQFNSTYRVVSVLPILHQDWLKGKEFKCKVNSKSLPSPIERTISKAKGQPHEPQVYVLPPAQEELSRNKVSVTCLIKSFHPPDIAVEWEITGQPEPENNYRTTPPQLDSDGTYFVYSKLSVDRSHWQRGNTYTCSVSHEALHSHHTQKSLTQSPGK | 0.922
feline IgG1a A378W (antibody, part only; not given: Variable domains, not shown: another chain or arm of the molecule; small tags and cut ends) constant: ASTTAPSVFPLAPSCGTTSGATVALACLVLGYFPEPVTVSWNSGALTSGVHTFPAVLQASGLYSLSSMVTVPSSRWLSDTFTCNVAHPPSNTKVDKTVRKTDHPPGPKPCDCPKCPPPEMLGGPSIFIFPPKPKDTLSISRTPEVTCLVVDLGPDDSDVQITWFVDNTQVYTAKTSPREEQFNSTYRVVSVLPILHQDWLKGKEFKCKVNSKSLPSPIERTISKAKGQPHEPQVYVLPPAQEELSRNKVSVTCLIKSFHPPDIWVEWEITGQPEPENNYRTTPPQLDSDGTYFVYSKLSVDRSHWQRGNTYTCSVSHEALHSHHTQKSLTQSPGK | 0.091
feline IgG1a S252I (antibody, part only; not given: Variable domains, not shown: another chain or arm of the molecule) constant: ASTTAPSVFPLAPSCGTTSGATVALACLVLGYFPEPVTVSWNSGALTSGVHTFPAVLQASGLYSLSSMVTVPSSRWLSDTFTCNVAHPPSNTKVDKTVRKTDHPPGPKPCDCPKCPPPEMLGGPSIFIFPPKPKDTLIISRTPEVTCLVVDLGPDDSDVQITWFVDNTQVYTAKTSPREEQFNSTYRVVSVLPILHQDWLKGKEFKCKVNSKSLPSPIERTISKAKGQPHEPQVYVLPPAQEELSRNKVSVTCLIKSFHPPDIAVEWEITGQPEPENNYRTTPPQLDSDGTYFVYSKLSVDRSHWQRGNTYTCSVSHEALHSHHTQKSLTQSPGK | 0.156
feline IgG1a A378T (antibody, part only; not given: Variable domains, not shown: another chain or arm of the molecule; small tags and cut ends) constant: ASTTAPSVFPLAPSCGTTSGATVALACLVLGYFPEPVTVSWNSGALTSGVHTFPAVLQASGLYSLSSMVTVPSSRWLSDTFTCNVAHPPSNTKVDKTVRKTDHPPGPKPCDCPKCPPPEMLGGPSIFIFPPKPKDTLSISRTPEVTCLVVDLGPDDSDVQITWFVDNTQVYTAKTSPREEQFNSTYRVVSVLPILHQDWLKGKEFKCKVNSKSLPSPIERTISKAKGQPHEPQVYVLPPAQEELSRNKVSVTCLIKSFHPPDITVEWEITGQPEPENNYRTTPPQLDSDGTYFVYSKLSVDRSHWQRGNTYTCSVSHEALHSHHTQKSLTQSPGK | 0.0592
feline IgG1a A378Q (antibody, part only; not given: Variable domains, not shown: another chain or arm of the molecule) constant: ASTTAPSVFPLAPSCGTTSGATVALACLVLGYFPEPVTVSWNSGALTSGVHTFPAVLQASGLYSLSSMVTVPSSRWLSDTFTCNVAHPPSNTKVDKTVRKTDHPPGPKPCDCPKCPPPEMLGGPSIFIFPPKPKDTLSISRTPEVTCLVVDLGPDDSDVQITWFVDNTQVYTAKTSPREEQFNSTYRVVSVLPILHQDWLKGKEFKCKVNSKSLPSPIERTISKAKGQPHEPQVYVLPPAQEELSRNKVSVTCLIKSFHPPDIQVEWEITGQPEPENNYRTTPPQLDSDGTYFVYSKLSVDRSHWQRGNTYTCSVSHEALHSHHTQKSLTQSPGK | 0.049
feline IgG1a S252K (antibody, part only; not given: variable domains and light chain, not shown: another chain or arm of the molecule) constant: ASTTAPSVFPLAPSCGTTSGATVALACLVLGYFPEPVTVSWNSGALTSGVHTFPAVLQASGLYSLSSMVTVPSSRWLSDTFTCNVAHPPSNTKVDKTVRKTDHPPGPKPCDCPKCPPPEMLGGPSIFIFPPKPKDTLKISRTPEVTCLVVDLGPDDSDVQITWFVDNTQVYTAKTSPREEQFNSTYRVVSVLPILHQDWLKGKEFKCKVNSKSLPSPIERTISKAKGQPHEPQVYVLPPAQEELSRNKVSVTCLIKSFHPPDIAVEWEITGQPEPENNYRTTPPQLDSDGTYFVYSKLSVDRSHWQRGNTYTCSVSHEALHSHHTQKSLTQSPGK | 0.0537
feline IgG1a S252E (antibody, part only; not given: variable domains, not shown: another chain or arm of the molecule) constant: ASTTAPSVFPLAPSCGTTSGATVALACLVLGYFPEPVTVSWNSGALTSGVHTFPAVLQASGLYSLSSMVTVPSSRWLSDTFTCNVAHPPSNTKVDKTVRKTDHPPGPKPCDCPKCPPPEMLGGPSIFIFPPKPKDTLEISRTPEVTCLVVDLGPDDSDVQITWFVDNTQVYTAKTSPREEQFNSTYRVVSVLPILHQDWLKGKEFKCKVNSKSLPSPIERTISKAKGQPHEPQVYVLPPAQEELSRNKVSVTCLIKSFHPPDIAVEWEITGQPEPENNYRTTPPQLDSDGTYFVYSKLSVDRSHWQRGNTYTCSVSHEALHSHHTQKSLTQSPGK | 0.163
feline IgG1a S252D (antibody, part only; not given: Variable domains, not shown: another chain or arm of the molecule; small tags and cut ends) constant: ASTTAPSVFPLAPSCGTTSGATVALACLVLGYFPEPVTVSWNSGALTSGVHTFPAVLQASGLYSLSSMVTVPSSRWLSDTFTCNVAHPPSNTKVDKTVRKTDHPPGPKPCDCPKCPPPEMLGGPSIFIFPPKPKDTLDISRTPEVTCLVVDLGPDDSDVQITWFVDNTQVYTAKTSPREEQFNSTYRVVSVLPILHQDWLKGKEFKCKVNSKSLPSPIERTISKAKGQPHEPQVYVLPPAQEELSRNKVSVTCLIKSFHPPDIAVEWEITGQPEPENNYRTTPPQLDSDGTYFVYSKLSVDRSHWQRGNTYTCSVSHEALHSHHTQKSLTQSPGK | 0.0935
feline IgG1a A378Y (antibody, part only; not given: Variable domains, not shown: another chain or arm of the molecule; small tags and cut ends) constant: ASTTAPSVFPLAPSCGTTSGATVALACLVLGYFPEPVTVSWNSGALTSGVHTFPAVLQASGLYSLSSMVTVPSSRWLSDTFTCNVAHPPSNTKVDKTVRKTDHPPGPKPCDCPKCPPPEMLGGPSIFIFPPKPKDTLSISRTPEVTCLVVDLGPDDSDVQITWFVDNTQVYTAKTSPREEQFNSTYRVVSVLPILHQDWLKGKEFKCKVNSKSLPSPIERTISKAKGQPHEPQVYVLPPAQEELSRNKVSVTCLIKSFHPPDIYVEWEITGQPEPENNYRTTPPQLDSDGTYFVYSKLSVDRSHWQRGNTYTCSVSHEALHSHHTQKSLTQSPGK | 0.0696

Results, then the molecule that gave them:

Kd [µM] | Molecule
0.0048 | feline IgG1a S434Q (antibody)
0.0202 | feline IgG1a wild-type (WT) (antibody, part only; not given: Variable domains, not shown: another chain or arm of the molecule) constant: ASTTAPSVFPLAPSCGTTSGATVALACLVLGYFPEPVTVSWNSGALTSGVHTFPAVLQASGLYSLSSMVTVPSSRWLSDTFTCNVAHPPSNTKVDKTVRKTDHPPGPKPCDCPKCPPPEMLGGPSIFIFPPKPKDTLSISRTPEVTCLVVDLGPDDSDVQITWFVDNTQVYTAKTSPREEQFNSTYRVVSVLPILHQDWLKGKEFKCKVNSKSLPSPIERTISKAKGQPHEPQVYVLPPAQEELSRNKVSVTCLIKSFHPPDIAVEWEITGQPEPENNYRTTPPQLDSDGTYFVYSKLSVDRSHWQRGNTYTCSVSHEALHSHHTQKSLTQSPGK
0.0429 | feline IgG1a A378V (antibody, part only; not given: Variable domains, not shown: another chain or arm of the molecule; small tags and cut ends) constant: ASTTAPSVFPLAPSCGTTSGATVALACLVLGYFPEPVTVSWNSGALTSGVHTFPAVLQASGLYSLSSMVTVPSSRWLSDTFTCNVAHPPSNTKVDKTVRKTDHPPGPKPCDCPKCPPPEMLGGPSIFIFPPKPKDTLSISRTPEVTCLVVDLGPDDSDVQITWFVDNTQVYTAKTSPREEQFNSTYRVVSVLPILHQDWLKGKEFKCKVNSKSLPSPIERTISKAKGQPHEPQVYVLPPAQEELSRNKVSVTCLIKSFHPPDIVVEWEITGQPEPENNYRTTPPQLDSDGTYFVYSKLSVDRSHWQRGNTYTCSVSHEALHSHHTQKSLTQSPGK
0.0362 | feline IgG1a A378R (antibody, part only; not given: Variable domains, not shown: another chain or arm of the molecule) constant: ASTTAPSVFPLAPSCGTTSGATVALACLVLGYFPEPVTVSWNSGALTSGVHTFPAVLQASGLYSLSSMVTVPSSRWLSDTFTCNVAHPPSNTKVDKTVRKTDHPPGPKPCDCPKCPPPEMLGGPSIFIFPPKPKDTLSISRTPEVTCLVVDLGPDDSDVQITWFVDNTQVYTAKTSPREEQFNSTYRVVSVLPILHQDWLKGKEFKCKVNSKSLPSPIERTISKAKGQPHEPQVYVLPPAQEELSRNKVSVTCLIKSFHPPDIRVEWEITGQPEPENNYRTTPPQLDSDGTYFVYSKLSVDRSHWQRGNTYTCSVSHEALHSHHTQKSLTQSPGK
0.0271 | feline IgG1a S252A (antibody, part only; not given: Variable domains, not shown: another chain or arm of the molecule; small tags and cut ends) constant: ASTTAPSVFPLAPSCGTTSGATVALACLVLGYFPEPVTVSWNSGALTSGVHTFPAVLQASGLYSLSSMVTVPSSRWLSDTFTCNVAHPPSNTKVDKTVRKTDHPPGPKPCDCPKCPPPEMLGGPSIFIFPPKPKDTLAISRTPEVTCLVVDLGPDDSDVQITWFVDNTQVYTAKTSPREEQFNSTYRVVSVLPILHQDWLKGKEFKCKVNSKSLPSPIERTISKAKGQPHEPQVYVLPPAQEELSRNKVSVTCLIKSFHPPDIAVEWEITGQPEPENNYRTTPPQLDSDGTYFVYSKLSVDRSHWQRGNTYTCSVSHEALHSHHTQKSLTQSPGK
0.0483 | feline IgG1a A378S (antibody, part only; not given: Variable domains, not shown: another chain or arm of the molecule) constant: ASTTAPSVFPLAPSCGTTSGATVALACLVLGYFPEPVTVSWNSGALTSGVHTFPAVLQASGLYSLSSMVTVPSSRWLSDTFTCNVAHPPSNTKVDKTVRKTDHPPGPKPCDCPKCPPPEMLGGPSIFIFPPKPKDTLSISRTPEVTCLVVDLGPDDSDVQITWFVDNTQVYTAKTSPREEQFNSTYRVVSVLPILHQDWLKGKEFKCKVNSKSLPSPIERTISKAKGQPHEPQVYVLPPAQEELSRNKVSVTCLIKSFHPPDISVEWEITGQPEPENNYRTTPPQLDSDGTYFVYSKLSVDRSHWQRGNTYTCSVSHEALHSHHTQKSLTQSPGK
